test: soluble on expression in E. coli; label from the status in PepcDB or PDB records

Sequence | soluble on expression in E. coli
MSLSTRSRIREERKDPLSALAREYGGSKRNALLKWCQKKTEGYQNIDITNFSSSWNDGLAFCALLHTYLPAHIPYQELNSQDKKRNFTLAFQAAESVGIKSTLDINEMARTERPDWQNVMLYVTAIYKYFETEGHHHHHH | soluble
MCENTLAQQKTEEFAPVSDLRAEAYGSTVFLHWTPPYDNPMIPLSESFESGIPAIWKTIDADGDGYNWMHLTNFTGQSGLCVSSASYIGGVGALTPDNYLITPELKLPTDALVEIIYWVCTQDLTAPSEHYAVYSSSTGNNAADFVNLLYEETLTAKRIQSPELIRGNRTQGVWYQRKVVLPNDTKYVAFRHFNSTDNFWLNLDEVSILYTPLPRRAPCPHPGGYTYSVFRDGQKIASGLSALAYIDTDVPYGTQDYCVQVNYLQGDSYKVCKNIVVANSANIYGADKPFALTVVGKTIVASAFKGEITLYDIRGRLIASGCDTLRYKAENGFYLIKIQVNGTVYTEKIQIQ | not soluble
MAHHHHHHMAVSQLLEMKLITRPRANLTQENVNAMVEFDYELAKKAQIAVDNNLPVNFFDLEYIDKPEYLAQLLEEKNILEKTREEVLKREKGNYKTPEILKNYKRVEVPREWRQELEIDEKILKAQPGLKENIELQKIMHNYVQSKFKSKVPGQPQKKHVKG | soluble
MGRFAVYEDPFVTKLMNTIGSMTFDGLGFTLLELYRDLVISADNYFMNYVNYGETPHDVGEESIEDPIYGASYPYWWTDLGPTLVLMLYRDYVFTSNREILEKNYNKIKEIIDWLIRKDMDNDCIPDSKGGYDNSYDGTHMYGASSYIASMFLSALTAFIKMSEILDVKIDDKYYRFLECGKKTFNSLWNGKYFILWKKNDEENTSCLNSQLLGQFWCDILGLPPITDHDKINTALRSIYELNFKASKYCLTNAVREDGSVDSSTAQLRSCWPRVSFAVAAHMILRGMVKEGIEVAKREWETIKELNPFDQSSRIDAIDGKYVGLMSYIGSTSVWLLKLALDKIRLEHHHHHH | soluble
MSLGFFNKLRQLAEDGTKMAQDGYARFNNAAFADATMAACALIGAADGQIDSQERSRTAQFITSSDKLRTFDVSKLREKYERYCDVISRDFDFGKIELMQVIGKVRKPEEARAVVQLAVVIANADGDFDAREQAVMREVIHALGLSPAEFGEGGSHHHHHH | soluble
MAHHHHHHMLYHYDILKYNSNHEYNNCSYFKNTFVHFFDYIYNIKMMKEYNDLKAKICINKEFNILFNILNKMNYSFAYRDKKLIKMNDCLYHTYHIIGIKKISSIGYIFNFKNELNDNFSKVLKTKISNILSIEDIYFLFNRFFYFLLMYIRKFCCFSNKKDTNIPQNEAETFVNSVCNCKQDNCCYKIKTIVLINNIQ | not soluble
PFMDQSGGGVTFCGGEPLLHPEFLIDILKRCGQQGIHRAVDTTLLARKETVDEVMRNCELLLIDLKSMDSTVHQTFCDVPNELILKNIRRVAEADFPYYIRIPLIEGVNADEKNIKLSAEFLASLPRHPEIINLLPYHDIGKGKHAKLGSIYNPKGYKMQTPSEEVQQQCIQILTDYGLKATIGG | soluble
MLNIFTTISKINITSLAIGCFDGMHLGHLKLVKCLDENGALLVINKFKGQFLCSNRQKEEISGKKVIEVDFESIKSLDGRDFLSFLKKEFVNLKFIVVGYDFSFGKNRAYNAKDIESLSGIKTIIVDEFSIDGIGVHASLIKDFLSKANLQKAKEFLGRDYSIKGKMIKGQGLGSKELFATINLDCEGYFLPQNGVYVTLLKSQRKTYKSVSFLGVRSSDENFAIESHILEELGENFTQGEFFELEFISFLRENQKFQDLKKLKNQIAKDIEQARELLRKNDER | not soluble
MSRDPTYTINEHDLSFADGRFYVTFKADKSSETVRLNSSCLGNTIIKKLQVEDDNTMHDFVKPKVTTQQAFGLAQQVKELDLQLKDPKSDLWGKIKFNNKAMLVEYANKEMSSAIAQSAEQILLQVKSIDDERYSKFEQTLNGIKQTVKSESVESARTQLASMFDSRISGLDGKYSRLSQTIDSLSSRLDDGVGNYSTLSQKVSGIDLRVSNAANDVSRLSQTAQGLQSQITNANQNYSSLSQTVQGLQTTVRDNQSNATSRINQLSDLISTKVSKGDVETTIAQSYDKIAFAIRDKLPASKMSGSEIISAINLDRSGVKITGKNITLDGNSYISNAVIKDAHIANMDAGKINTGYLNANRIATEAITGEKIKMDYAFFNKLTANEGYFRTLFAKDIFATSVQSVTLSASKITGGVLAATNGASQWDLNNANMTFNRDATINFNSKNNALVRKDGTHTAFVHFSNATPKGYRGSALYASIGITSSGDGIDSASSGRFAGLRSFRYATGYNHTAAVDQTELYGDNVLIADDFNINRGFKFRPDKMEKVLDMNDLYAAVVALGRCWGHLANVGWNT | not soluble
MVHEEDFKEGYILGFIEAEGSFSVSIKFQRDVFGGVRLDPVFSITQKNREVLEAIKEHLGIGRIMEKAGQPNTYVYVVDNFNELVKLINFLNKYADFMIVKKRQFLMFREIANGLVNGEHLHINGLKRLVKLAYELTKESEKGYRKYDLNHVLSIIDKWDLGRNVSTSL | soluble
LLERLPVPVLAVQHDGVVVYSNRAFERMLDYPPNEVGNHLIGDLMQTASPGPSAVAELRESAGKLVALTHRDGSTVRAFVSESVLERHDDPVTLVCFHDVT | not soluble
MKVIAVNGGPRKQWNTATLLHKALEGAQSAGAETDLFHLYDLNYKGCISCFGCKRKNSSRIGHCVLKDELTPLLEEVLKCDALLLGSPIYFGNVTGAMRSFLERLFFSLLSYNEGQRTVFPRKVASGFIYTMNVPEDFLPQLGYEAVFKANARSLELLNGPSEYLLATDTYQFDNYSNYEASRFNEQHKAQVRQERFPQDCRQAFDLGAR | not soluble
MGSDKIHHHHHHMRNITVPSNYFHTRERLGALGGIVQHHTALYRSVAVYEPTVVIVRRGCKKLRWAGRELRIAAGEAVGLAGGQTLDVINIPDSDGLYQAQWIAFEQETVERFAAQYGTAQAVCDAVKLPHPGRMGAAFDYAAAVLADEEVPHNAAEAALCGVLAWLQHDGIGFAVYGGVNLMRQIRKLITADMAADWSSAMLAQRLNCSEAALRRRLARQDTNFRTLLTDVRMMRALTLLQVTQWSVAQIAGAVGYDCPSRFSARFKELFGCVPSVVRSEAEPAAYRRTGQVSVGVRP | not soluble
MKSVTVFLLAGTTFAIYFDGKGSRHSSSSSEEHGGHGPRPGPGGPGRGGNCSPGWLRFERQSGVWCVFVGLAGINDNSFAQKDGQSACVALGATLTGFQNDKERMAVADEAGRKLGAAGGGIAGLWLGATTRAGCKAGACGPLNTFMWTDGVTTGTAGLKWATGEPDSVDYPGTAACIQQFIMLPNWVPGPYDLEGFRTGFTHGILYKFSCIAPVTPGTRMFACGKMAAG | not soluble
MVAQARRQGCGERLTTATAVATPATAEQGETTMETVEEFLAHSIKLEQEAALRFGQLADAMDSCGNKEVSKLFRQLADYSRMHQADAQARAGFRDIPQMEPGDFKWPGLESPEAAAIWGTDPFIGRDLALQIALEAETGAFDWYKNVLDTTDNPEIKMLAKEFVEEESGHVAELHRWIALHKAGKPLPMEIVPF | not soluble
MGSDKIHHHHHHMPQDTISVSLLDSRIQASRPNYYNPLLVYKTAKIKVNKDAASYKILNLTVNNYEKQIETLEKENGNGEDQFGKEKTLLKTAMSNFFNSSEESLKSADLFIYKDKPEELKNYLKVHRHTFVVLINTEGDASDDGLKIYKDDYNKFKKPSTFFVFSTKEQEIKELFKDKGNTEKERNIAVYSNNKDNLHLKFISQYLHQASIFHAVNPYGMPLAATPLVDDTVIGKLRTAKINFYSLLNETGLDGVPAFKEGVDLAGGAIDEQFTYHYIKNEAIIELIRIWNKNNRQNSKLSALQLSGARDNAYTSAIECLLKRFVDRGLIIEYKNLRLTLSPTPQLKLELSVNITYNFSINAVALVITTQDIVDYQNSLSA | not soluble
MGSDKIHHHHHHMMTAHAIGTREEWLAARLDLLEAEKNLTRRSDELAKWRRELPWVRIDKAYRFETDEGEASLRDLFKGRSQLLVYHFMFGPDYTAGCPSCSAIADGFNGIVAHLENHDVAFSAVSRAPLAKLTAYKRRLGWSFPWASSDDGAFNRDFCVWFTEQQQREGGIEYNFRREPPIPEQPASEPLAGRTVREWDASGSEGPVAQIAAMTGTDVATYTRDRPGVSAFALEDGIVYHTYSSYARGLDGLWGMYQWLDRTPKGRNENGIWWRRHDEYAQG | not soluble

From the DeepSol protein solubility set
